{"source": "paper PMC3877283", "about": "“Development of Novel Radiogallium-Labeled Bone Imaging Agents Using Oligo-Aspartic Acid Peptides as Carriers” (PLoS ONE, 2013)", "assay": "Biodistribution experiments in normal mice", "format": "in vivo, ddY mice", "details": "for F/B ratio (Femur:blood ratio) / tissue uptake dose at 1 h / tissue uptake dose at 3 h / tissue uptake dose at 10 min: male ddY mice, no pretreatment, mean (SD) for four or five animals; for tissue uptake dose at 1 h / tissue uptake dose at 3 h / tissue uptake dose at 10 min: mouse, in vivo, iv, 37 kBq/100 uL, total radioactivity", "method": "Experiments with animals were conducted in strict accordance with the Guidelines for the Care and Use of Laboratory Animals of Kanazawa University. The animal experimental protocols used were approved by the Committee on Animal Experimentation of Kanazawa University (Permit Number: AP-132633). Biodistribution experiments were performed after an intravenous administration of each diluted tracer solution (37 kBq/100 µL) to 6-week-old male ddY mice (27–32 g, Japan SLC, Inc., Hamamatsu, Japan). To investigate the effect of an excess amount of bisphosphonate on biodistribution, alendronate (20 mg/kg) was intravenously administered to mice 1 minute before the intravenous injection of ^67Ga-DOTA-(Asp)14 or ^67Ga-DOTA-Bn-SCN-HBP. Four to six mice each were sacrificed by decapitation at 10, 60, and 180 minutes post-injection. Tissues of interest were removed and weighed. Complete left femurs were isolated as representative bone samples, radioactivity was determined using an auto well gamma counter, and counts were corrected for background radiation and physical decay during counting.", "note": "Where two headings read alike, the source gives them in different places. Peptide text beside a SMILES is read from it. * marks the point of attachment. DOTA = O=C(O)CN1CCN(CC(=O)O)CCN(CC(=O)*)CCN(CC(=O)O)CC1"}
{"smiles": "O=C(O)C[C@H](NC(=O)[C@H](CC(=O)O)NC(=O)[C@H](CC(=O)O)NC(=O)[C@H](CC(=O)O)NC(=O)[C@H](CC(=O)O)NC(=O)[C@H](CC(=O)O)NC(=O)[C@H](CC(=O)O)NC(=O)[C@H](CC(=O)O)NC(=O)[C@H](CC(=O)O)NC(=O)[C@H](CC(=O)O)NC(=O)[C@H](CC(=O)O)NC(=O)CN1CCN(CC(=O)O)CCN(CC(=O)O)CCN(CC(=O)O)CC1)C(=O)O", "note": "[67Ga-DOTA-(Asp)11, metal not drawn] ({DOTA}-DDDDDDDDDDD-OH)", "values": [{"measurement": "F/B ratio (Femur:blood ratio)", "setting": "10 min after i.v. administration", "value": "8.71 (0.73)"}, {"measurement": "F/B ratio (Femur:blood ratio)", "setting": "60 min after i.v. administration", "value": "156.07 (45.00)"}, {"measurement": "F/B ratio (Femur:blood ratio)", "setting": "180 min after i.v. administration", "value": "501.32 (156.89)"}, {"measurement": "tissue uptake dose at 1 h", "setting": "male, ddY, Blood, 60 min after i.v. administration, read-out: Radioactivity in Blood", "value": 0.11, "unit": "%ID"}, {"measurement": "tissue uptake dose at 3 h", "setting": "male, ddY, Blood, 180 min after i.v. administration, read-out: Radioactivity in Blood", "value": 0.03, "unit": "%ID"}, {"measurement": "tissue uptake dose at 10 min", "setting": "male, ddY, Bone (complete left femur), 10 min after i.v. administration, read-out: Radioactivity in Bone (Femur)", "value": 13.1, "unit": "%ID"}, {"measurement": "tissue uptake dose at 1 h", "setting": "male, ddY, Bone (complete left femur), 60 min after i.v. administration, read-out: Radioactivity in Bone (Femur)", "value": 16.3, "unit": "%ID"}, {"measurement": "tissue uptake dose at 3 h", "setting": "male, ddY, Bone (complete left femur), 180 min after i.v. administration, read-out: Radioactivity in Bone (Femur)", "value": 13.9, "unit": "%ID"}, {"measurement": "tissue uptake dose at 10 min", "setting": "male, ddY, Brain, 10 min after i.v. administration, read-out: Radioactivity in Brain", "value": 0.05, "unit": "%ID"}, {"measurement": "tissue uptake dose at 1 h", "setting": "male, ddY, Brain, 60 min after i.v. administration, read-out: Radioactivity in Brain", "value": 0.02, "unit": "%ID"}, {"measurement": "tissue uptake dose at 3 h", "setting": "male, ddY, Brain, 180 min after i.v. administration, read-out: Radioactivity in Brain", "value": 0.01, "unit": "%ID"}, {"measurement": "tissue uptake dose at 10 min", "setting": "male, ddY, Heart, 10 min after i.v. administration, read-out: Radioactivity in Heart", "value": 0.55, "unit": "%ID"}, {"measurement": "tissue uptake dose at 1 h", "setting": "male, ddY, Heart, 60 min after i.v. administration, read-out: Radioactivity in Heart", "value": 0.08, "unit": "%ID"}, {"measurement": "tissue uptake dose at 3 h", "setting": "male, ddY, Heart, 180 min after i.v. administration, read-out: Radioactivity in Heart", "value": 0.02, "unit": "%ID"}, {"measurement": "tissue uptake dose at 10 min", "setting": "male, ddY, Kidney, 10 min after i.v. administration, read-out: Radioactivity in Kidney", "value": 16, "unit": "%ID"}, {"measurement": "tissue uptake dose at 1 h", "setting": "male, ddY, Kidney, 60 min after i.v. administration, read-out: Radioactivity in Kidney", "value": 1.76, "unit": "%ID"}, {"measurement": "tissue uptake dose at 3 h", "setting": "male, ddY, Kidney, 180 min after i.v. administration, read-out: Radioactivity in Kidney", "value": 0.8, "unit": "%ID"}, {"measurement": "tissue uptake dose at 10 min", "setting": "male, ddY, Large-intestine, 10 min after i.v. administration, read-out: Radioactivity in Large-intestine", "value": 0.27, "unit": "%ID"}, {"measurement": "tissue uptake dose at 1 h", "setting": "male, ddY, Large-intestine, 60 min after i.v. administration, read-out: Radioactivity in Large-intestine", "value": 0.06, "unit": "%ID"}, {"measurement": "tissue uptake dose at 3 h", "setting": "male, ddY, Large-intestine, 180 min after i.v. administration, read-out: Radioactivity in Large-intestine", "value": 0.13, "unit": "%ID"}, {"measurement": "tissue uptake dose at 10 min", "setting": "male, ddY, Liver, 10 min after i.v. administration, read-out: Radioactivity in Liver", "value": 0.44, "unit": "%ID"}, {"measurement": "tissue uptake dose at 1 h", "setting": "male, ddY, Liver, 60 min after i.v. administration, read-out: Radioactivity in Liver", "value": 0.07, "unit": "%ID"}, {"measurement": "tissue uptake dose at 3 h", "setting": "male, ddY, Liver, 180 min after i.v. administration, read-out: Radioactivity in Liver", "value": 0.05, "unit": "%ID"}, {"measurement": "tissue uptake dose at 10 min", "setting": "male, ddY, Lung, 10 min after i.v. administration, read-out: Radioactivity in Lung", "value": 1.11, "unit": "%ID"}, {"measurement": "tissue uptake dose at 1 h", "setting": "male, ddY, Lung, 60 min after i.v. administration, read-out: Radioactivity in Lung", "value": 0.12, "unit": "%ID"}, {"measurement": "tissue uptake dose at 3 h", "setting": "male, ddY, Lung, 180 min after i.v. administration, read-out: Radioactivity in Lung", "value": 0.04, "unit": "%ID"}, {"measurement": "tissue uptake dose at 10 min", "setting": "male, ddY, Muscle, 10 min after i.v. administration, read-out: Radioactivity in Muscle", "value": 0.48, "unit": "%ID"}, {"measurement": "tissue uptake dose at 1 h", "setting": "male, ddY, Muscle, 60 min after i.v. administration, read-out: Radioactivity in Muscle", "value": 0.13, "unit": "%ID"}, {"measurement": "tissue uptake dose at 3 h", "setting": "male, ddY, Muscle, 180 min after i.v. administration, read-out: Radioactivity in Muscle", "value": 0.08, "unit": "%ID"}, {"measurement": "tissue uptake dose at 10 min", "setting": "male, ddY, Pancreas, 10 min after i.v. administration, read-out: Radioactivity in Pancreas", "value": 0.62, "unit": "%ID"}, {"measurement": "tissue uptake dose at 1 h", "setting": "male, ddY, Pancreas, 60 min after i.v. administration, read-out: Radioactivity in Pancreas", "value": 0.07, "unit": "%ID"}, {"measurement": "tissue uptake dose at 3 h", "setting": "male, ddY, Pancreas, 180 min after i.v. administration, read-out: Radioactivity in Pancreas", "value": 0.05, "unit": "%ID"}, {"measurement": "tissue uptake dose at 10 min", "setting": "male, ddY, Small-intestine, 10 min after i.v. administration, read-out: Radioactivity in Small-intestine", "value": 0.41, "unit": "%ID"}, {"measurement": "tissue uptake dose at 1 h", "setting": "male, ddY, Small-intestine, 60 min after i.v. administration, read-out: Radioactivity in Small-intestine", "value": 0.27, "unit": "%ID"}, {"measurement": "tissue uptake dose at 3 h", "setting": "male, ddY, Small-intestine, 180 min after i.v. administration, read-out: Radioactivity in Small-intestine", "value": 0.05, "unit": "%ID"}, {"measurement": "tissue uptake dose at 10 min", "setting": "male, ddY, Spleen, 10 min after i.v. administration, read-out: Radioactivity in Spleen", "value": 0.31, "unit": "%ID"}, {"measurement": "tissue uptake dose at 1 h", "setting": "male, ddY, Spleen, 60 min after i.v. administration, read-out: Radioactivity in Spleen", "value": 0.09, "unit": "%ID"}, {"measurement": "tissue uptake dose at 3 h", "setting": "male, ddY, Spleen, 180 min after i.v. administration, read-out: Radioactivity in Spleen", "value": 0.04, "unit": "%ID"}, {"measurement": "tissue uptake dose at 10 min", "setting": "male, ddY, Stomach (footnote b), 10 min after i.v. administration, read-out: Radioactivity in Stomach", "value": 0.21, "unit": "%ID"}, {"measurement": "tissue uptake dose at 1 h", "setting": "male, ddY, Stomach (footnote b), 60 min after i.v. administration, read-out: Radioactivity in Stomach", "value": 0.18, "unit": "%ID"}, {"measurement": "tissue uptake dose at 3 h", "setting": "male, ddY, Stomach (footnote b), 180 min after i.v. administration, read-out: Radioactivity in Stomach", "value": 0.04, "unit": "%ID"}, {"measurement": "tissue uptake dose at 10 min", "setting": "Blood, 10 min after i.v. administration (37 kBq/100 µL), gamma counter, read-out: Radioactivity in Blood", "value": 1.51, "unit": "%ID"}, {"measurement": "accumulation of radioactivity in the femur (in words)", "setting": "normal mice, i.v.", "value": "higher accumulation"}]}
